Patent US20240294670A1 (University of Texas, published 2024)

What was measured:
Assay in all cases: anti-His co-IP of rCHI3L1 from Kupffer cell lysate, MS; listed under 'proteins bound to CHI3L1'
Q8C6E3_MOUSE = target: T1, Q8C6E3_MOUSE (mouse, UniProt Q8C6E3 2-527)
T1 construct: also called tr|Q8C6E3|Q8C6E3_MOUSE
T1 sequence: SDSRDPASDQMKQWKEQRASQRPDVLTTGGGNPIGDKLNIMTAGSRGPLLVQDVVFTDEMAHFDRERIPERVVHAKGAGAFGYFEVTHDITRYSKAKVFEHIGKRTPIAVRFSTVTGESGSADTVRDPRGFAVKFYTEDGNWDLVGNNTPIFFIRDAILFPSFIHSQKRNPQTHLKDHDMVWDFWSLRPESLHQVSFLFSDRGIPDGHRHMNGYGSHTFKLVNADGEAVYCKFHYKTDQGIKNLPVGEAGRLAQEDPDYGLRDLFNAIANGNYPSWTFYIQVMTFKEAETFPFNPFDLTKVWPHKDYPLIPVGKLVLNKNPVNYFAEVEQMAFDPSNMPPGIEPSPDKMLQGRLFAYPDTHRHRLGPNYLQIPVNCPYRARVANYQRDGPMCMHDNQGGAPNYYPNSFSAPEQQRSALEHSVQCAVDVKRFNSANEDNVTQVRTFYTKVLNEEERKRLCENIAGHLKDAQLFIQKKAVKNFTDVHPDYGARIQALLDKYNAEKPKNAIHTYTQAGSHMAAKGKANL
Procedure: (§1) CHI3L1 interacts with CD44 on KCs. To further understand how CHI3L1 mediates the function of KCs to recruit platelets, the inventors set out to identify its receptor on KCs. They isolated KCs from WT mice treated with APAP for 3 h and incubated the cells with His-tagged rCHI3L1. The cell lysate was subjected to immunoprecipitation using an anti-His antibody. The “pulled down” fraction was subjected to LC/MS analyses. A partial list of proteins identified, including CHI3L1 itself, is shown in (Extended Data Table 1). Because CD44 is a cell membrane protein, the inventors decided to investigate it is a receptor for CHI3L1. They performed/immunoprecipitation experiments using liver homogenates obtained from WT and CD44^{-/-} mice after APAP treatment. […] Moreover, the inventors incubated rhCHI3L1 with human CD44 and then immunoprecipitated with an anti-CD44 antibody. The data confirmed a direct binding between CHI3L1 and CD44 (FIG. 3C). Consistent with the notion that many cell types express CD44, they detected CD44 express on various hepatic non-parenchymal cells (NPCs) except B cells and DCs (summarized in Extended Data Table 2). However, when they incubated liver NPCs with His-tagged rCHI3L1, the inventors observed that the only CD44-expressing cells that could bind to CHI3L1 were KCs (FIG. 3D).

Q3UEQ9_MOUSE = target: T2, Q3UEQ9_MOUSE (mouse, UniProt Q3UEQ9 28-926)
T2 construct: also called tr|Q3UEQ9|Q3UEQ9_MOUSE
T2 sequence: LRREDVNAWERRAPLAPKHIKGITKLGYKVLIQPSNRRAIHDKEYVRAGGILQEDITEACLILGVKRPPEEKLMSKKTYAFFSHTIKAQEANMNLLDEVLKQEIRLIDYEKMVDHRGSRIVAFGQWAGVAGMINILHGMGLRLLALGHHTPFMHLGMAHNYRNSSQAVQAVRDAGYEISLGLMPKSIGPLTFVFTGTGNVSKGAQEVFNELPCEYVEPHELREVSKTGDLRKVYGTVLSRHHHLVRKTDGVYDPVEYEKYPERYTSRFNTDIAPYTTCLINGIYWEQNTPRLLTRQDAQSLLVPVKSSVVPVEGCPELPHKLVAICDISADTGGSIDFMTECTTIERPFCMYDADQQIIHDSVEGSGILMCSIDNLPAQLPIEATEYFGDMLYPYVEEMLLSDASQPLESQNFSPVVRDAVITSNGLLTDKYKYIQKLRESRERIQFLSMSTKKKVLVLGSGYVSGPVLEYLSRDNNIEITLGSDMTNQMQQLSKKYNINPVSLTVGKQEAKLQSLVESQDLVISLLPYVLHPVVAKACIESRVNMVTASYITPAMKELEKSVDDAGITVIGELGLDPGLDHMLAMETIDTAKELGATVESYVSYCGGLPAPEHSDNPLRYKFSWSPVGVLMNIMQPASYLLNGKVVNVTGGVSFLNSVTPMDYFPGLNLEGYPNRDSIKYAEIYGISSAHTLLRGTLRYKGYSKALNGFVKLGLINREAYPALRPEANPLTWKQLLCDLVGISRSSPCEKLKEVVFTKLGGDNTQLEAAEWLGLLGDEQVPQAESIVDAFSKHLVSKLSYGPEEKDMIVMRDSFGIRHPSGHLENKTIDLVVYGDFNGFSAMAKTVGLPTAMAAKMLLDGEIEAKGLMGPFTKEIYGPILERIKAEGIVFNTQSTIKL
Procedure: as §1

Q3TVM2_MOUSE = target: T3, Q3TVM2_MOUSE (mouse, UniProt Q3TVM2 20-519)
T3 construct: also called tr|Q3TVM2|Q3TVM2_MOUSE
T3 sequence: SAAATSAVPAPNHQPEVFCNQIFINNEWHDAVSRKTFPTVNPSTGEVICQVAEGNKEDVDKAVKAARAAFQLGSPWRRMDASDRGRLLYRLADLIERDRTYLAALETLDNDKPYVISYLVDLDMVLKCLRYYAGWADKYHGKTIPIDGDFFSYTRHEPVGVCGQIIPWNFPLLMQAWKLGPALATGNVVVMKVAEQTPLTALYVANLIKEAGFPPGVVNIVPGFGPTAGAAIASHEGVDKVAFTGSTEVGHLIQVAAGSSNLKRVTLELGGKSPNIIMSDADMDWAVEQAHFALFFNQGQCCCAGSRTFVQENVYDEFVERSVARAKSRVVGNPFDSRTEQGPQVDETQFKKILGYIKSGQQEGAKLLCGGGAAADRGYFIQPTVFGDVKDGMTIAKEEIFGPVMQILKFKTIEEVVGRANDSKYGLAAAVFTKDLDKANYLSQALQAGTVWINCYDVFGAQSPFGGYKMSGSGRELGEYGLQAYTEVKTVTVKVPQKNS
Procedure: as §1

Measured: binding result

B1: recombinant mouse CHI3L1 (ligand)
chain: not shown
notes: His-tagged; also called mCHI3L1; mChi3l1
binds: Q8C6E3_MOUSE | Q3UEQ9_MOUSE | Q3TVM2_MOUSE
